Source: article PMC7308479

Molecular target: GST
Assay: AUC; sedimentation velocity, 40 μM GST, 25 mM HEPES pH 7.4, 500 mM NaCl, 4°C

Sequence of GST (P08515 2-218): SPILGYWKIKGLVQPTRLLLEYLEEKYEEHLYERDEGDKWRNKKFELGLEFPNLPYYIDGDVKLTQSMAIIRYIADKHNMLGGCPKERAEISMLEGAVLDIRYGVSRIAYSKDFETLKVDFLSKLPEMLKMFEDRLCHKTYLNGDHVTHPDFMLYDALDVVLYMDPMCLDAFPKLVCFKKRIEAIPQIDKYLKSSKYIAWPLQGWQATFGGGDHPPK

A stoichiometry N of 2 was found for GST in this work.
